The target in the assay is mAb binding to Consensus GII.4 VLPs (BioGenes; IgG clone #1-9-1). The experiment in a line: IVRP competition ELISA; serially diluted thin-film freeze-dried and reconstituted vaccine (4% trehalose or 5% sucrose, bulk or single-vial TFFD) competes for mAb against plate-coated VLP; reference is undried vaccine.

“Norovirus genotype GII.4 Consensus VLP (from UniProt P54635 1-539)” had a relative potency (IVRP; inflection point of test vaccine divided by that of reference vaccine) of 49 to 73%.
